Consider 6 molecules from patent US20250346644A1 (LATTICON SUZHOU BIOPHARMACEUTICALS, published 2025).

Residue numbers refer to the chain shown, from its start. In names and notes the source's numbering stands. Like-named read-outs stand apart in the source and are kept apart here.

Usually Kd stands for the concentration at which binding is half-saturated. Read a high Kd as lower affinity. The term koff denotes the first-order rate constant of dissociation. A high value points to a short-lived complex. By kon is commonly meant the second-order rate constant of association. What is called EC50 is the concentration needed to bring the measured effect to its halfway point.

Assay [1] addresses T1, high-affinity IL2R expressed on the surface of CTLL-2 cells.
T1 sequence (P01590 whole entry, species assumed, looked up): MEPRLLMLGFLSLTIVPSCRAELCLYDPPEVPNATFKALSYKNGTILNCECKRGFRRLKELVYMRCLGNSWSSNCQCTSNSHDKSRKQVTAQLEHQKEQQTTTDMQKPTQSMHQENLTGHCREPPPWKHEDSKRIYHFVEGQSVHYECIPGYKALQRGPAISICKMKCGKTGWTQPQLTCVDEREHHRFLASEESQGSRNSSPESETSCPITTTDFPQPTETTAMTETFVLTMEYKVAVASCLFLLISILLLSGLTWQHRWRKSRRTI
T1 sequence (P16297 whole entry, species assumed, looked up): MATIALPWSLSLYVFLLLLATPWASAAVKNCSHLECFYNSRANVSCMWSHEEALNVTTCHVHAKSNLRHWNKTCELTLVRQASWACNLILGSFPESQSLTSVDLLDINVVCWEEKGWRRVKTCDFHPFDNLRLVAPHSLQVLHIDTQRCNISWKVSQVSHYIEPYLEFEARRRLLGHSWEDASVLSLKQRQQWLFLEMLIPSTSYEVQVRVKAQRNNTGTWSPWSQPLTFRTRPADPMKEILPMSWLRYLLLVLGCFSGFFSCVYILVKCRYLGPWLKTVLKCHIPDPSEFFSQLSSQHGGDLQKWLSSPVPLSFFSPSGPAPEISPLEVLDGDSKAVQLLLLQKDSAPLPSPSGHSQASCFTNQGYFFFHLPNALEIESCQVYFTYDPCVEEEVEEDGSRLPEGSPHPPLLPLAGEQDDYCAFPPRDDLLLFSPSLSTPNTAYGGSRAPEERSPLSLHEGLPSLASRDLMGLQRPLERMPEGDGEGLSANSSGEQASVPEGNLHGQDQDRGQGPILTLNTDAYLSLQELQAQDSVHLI
T1 sequence (P34902 whole entry, species assumed, looked up): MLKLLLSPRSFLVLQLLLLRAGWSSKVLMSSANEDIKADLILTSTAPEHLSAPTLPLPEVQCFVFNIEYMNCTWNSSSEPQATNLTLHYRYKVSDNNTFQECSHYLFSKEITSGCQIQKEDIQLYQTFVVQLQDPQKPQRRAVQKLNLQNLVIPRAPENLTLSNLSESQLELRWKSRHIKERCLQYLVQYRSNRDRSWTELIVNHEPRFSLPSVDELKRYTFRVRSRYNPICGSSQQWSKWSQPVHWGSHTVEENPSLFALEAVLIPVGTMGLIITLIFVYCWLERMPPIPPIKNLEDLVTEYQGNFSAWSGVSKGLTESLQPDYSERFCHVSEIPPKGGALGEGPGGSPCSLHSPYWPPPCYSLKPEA
Description: cell-based or functional assay.

For a further assay, the target named is T2, hIL2Rα/β/γ complex (human, UniProt P01589 22-213; P14784 27-239; P31785 23-254).
T2 construct: assembled in the BLI assay from bought subunits; also called hIL2Rα/o/γ complex
T2 sequence (looked up) 1: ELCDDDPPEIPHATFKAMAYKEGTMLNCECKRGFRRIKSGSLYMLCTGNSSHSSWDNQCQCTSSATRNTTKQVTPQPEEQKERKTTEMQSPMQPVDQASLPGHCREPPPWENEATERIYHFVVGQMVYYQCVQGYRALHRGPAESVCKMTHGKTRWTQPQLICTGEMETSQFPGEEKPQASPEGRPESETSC
T2 sequence (looked up) 2: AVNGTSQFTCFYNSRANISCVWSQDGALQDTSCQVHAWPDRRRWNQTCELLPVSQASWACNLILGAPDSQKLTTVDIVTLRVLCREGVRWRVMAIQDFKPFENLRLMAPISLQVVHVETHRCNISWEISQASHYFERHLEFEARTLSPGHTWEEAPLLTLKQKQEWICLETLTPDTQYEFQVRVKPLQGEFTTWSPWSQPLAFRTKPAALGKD
T2 sequence (looked up) 3: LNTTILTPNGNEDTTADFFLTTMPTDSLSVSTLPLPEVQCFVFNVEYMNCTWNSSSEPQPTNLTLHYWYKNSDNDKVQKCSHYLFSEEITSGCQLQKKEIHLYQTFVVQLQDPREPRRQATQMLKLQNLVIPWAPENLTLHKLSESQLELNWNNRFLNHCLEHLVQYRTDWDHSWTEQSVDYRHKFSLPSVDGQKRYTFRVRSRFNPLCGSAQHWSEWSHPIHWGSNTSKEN
Description: BLI (ForteBio): biotin-CD25 on an SA sensor, CD122 step, then sample (100 nM by the text) together with CD132. In general terms: Biolayer interferometry detects binding as a change in optical thickness at a sensor tip.

In assay [2] the target is T3, hIL2Rα (hCD25) (human, UniProt P01589 22-213, limits assumed).
T3 construct: bought recombinant protein; also called hCD25 (Acro); biotin-CD25 (Acro)
T3 sequence (looked up): T2 sequence (looked up) 1
Description: BLI (ForteBio): biotin-CD25 on an SA sensor, buffer step, then sample (100 nM by the text).

A further assay concerns the target T4, hIL2Rα/β complex (human, UniProt P01589 22-213; P14784 27-239).
T4 construct: assembled in the BLI assay from bought subunits; also called hIL2Rα/O complex
T4 sequence (looked up) 1: T2 sequence (looked up) 1
T4 sequence (looked up) 2: T2 sequence (looked up) 2
Put plainly: BLI (ForteBio): biotin-CD25 on an SA sensor, CD122 step, then sample (100 nM by the text) together with CD122.

Assay [3] addresses T5, mIL2-his (mouse, UniProt P04351 21-169).
T5 construct: also called wild-type mouse IL-2 (with a his-tag); not shown: his-tag
T5 sequence (looked up): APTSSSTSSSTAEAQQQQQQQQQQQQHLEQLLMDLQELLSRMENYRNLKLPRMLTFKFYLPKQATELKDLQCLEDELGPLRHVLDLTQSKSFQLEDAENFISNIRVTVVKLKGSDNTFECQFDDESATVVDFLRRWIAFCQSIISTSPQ
Description: BLI ForteBio, Ab on Protein A sensor.

For assay [4], the target named is T6, hIL2-TM-his (human, UniProt P60568 21-153).
T6 construct: also called hIL-2 mutein containing three point mutations K64G, N90R and M104E (with a his-tag); not shown: his-tag
T6 chain: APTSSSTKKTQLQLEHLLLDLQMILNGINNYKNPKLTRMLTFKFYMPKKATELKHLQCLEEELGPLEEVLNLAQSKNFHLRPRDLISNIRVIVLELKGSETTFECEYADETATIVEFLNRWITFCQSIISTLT
Description: BLI ForteBio, Ab on Protein A sensor.

The next assay concerns the target T7, hIL2-DM-his (human, UniProt P60568 21-153).
T7 construct: expressed in ExpiCHO-S cells, nickel-column purified; also called hIL-2 mutein containing two point mutations K64G and N90R (with a his-tag); not shown: his-tag
Put plainly: BLI ForteBio, Ab on Protein A sensor.

Assay [5] deals with T5, mIL2-his. Put plainly: BLI ForteBio, Ab on Protein A sensor. The source holds these as a separate data set.
Description: (§1) After each cycle of association and dissociation steps, the sensor was regenerated by 10 mM glycine buffer (pH 1.5) and then stated with the next cycle of detection. After the detection, the association rate constant and dissociation rate constant between the antibody and antigen were fitted and extrapolated using the analytical software, and the value of affinity constant (KD) was calculated.
For assay [6], the target named is T5, mIL2-his. Description: ELISA, antibody captured by anti-human IgG, mIL2-his titrated. In general terms: In an ELISA, binding on a coated surface is turned into a signal by an enzyme label.
Description: (§2) ELISA was performed as follows: a goat anti-human IgG (Jackson Immunoresearch) was diluted to 1 μg/mL in 1×PBS and added to an ELISA plate at 100 μL/well, and then incubated at 4° C. overnight. The plate was washed with PBS and then blocked at room temperature for 1 hour after adding the blocking solution (PBST containing 1% BSA) to each well. […] The plate was washed with PBST; the HRP-labeled anti-6×His-tag secondary antibody (Proteintech) diluted at a ratio of 1:10,000 in blocking solution was then added to each well and incubated at room temperature for 1 hour. The plate was washed with PBST; the TMB chromogenic solution (Thermo) was added to each well and incubated in dark for 3-10 minutes at room temperature. The stop solution (2 M HCl) was added to each well, and OD values at a wavelength of 450-570 nm were read using a multimode microplate reader (Varioskan, Thermo).
For assay [7], the target named is T1, high-affinity IL2R expressed on the …. Description: cell-based or functional assay. The source holds these as a separate data set.
In assay [8] the target is T8, hIL2Rβ (hCD122) (human, UniProt P14784 27-239, limits assumed).
T8 construct: bought recombinant protein; also called hCD122 (Acro)
T8 sequence (looked up): T2 sequence (looked up) 2
Put plainly: ELISA (method of section 2.1.1): sample captured on coated goat anti-human IgG, hCD122 titrated; the x axis is the CD122 concentration.
Description: as §2

Assay [9] deals with T6, hIL2-TM-his. Put plainly: BLI ForteBio, Ab on Protein A sensor.
Description: as §1
Assay [10] concerns the target T5, mIL2-his. Put plainly: BLI ForteBio, Ab on Protein A sensor. This is another data set of the same source.
Description: as §1
Assay [11] has as its target T8, hIL2Rβ (hCD122). Description: ELISA (method of section 4.2.1): sample captured on coated goat anti-human IgG, hCD122 titrated; the x axis is the CD122 concentration.
The target in assay [12] is T3, hIL2Rα (hCD25). Description: ELISA (method of section 4.2.1): sample captured on coated goat anti-human IgG, hCD25 titrated; the x axis is the CD25 concentration.

Description for hIL2-DM-his: as §1
Description for hIL2Rα/β complex: (§3) The specific method was described as follows: biotin-CD25 (Acro) was diluted in 1×PBS to 5 μg/mL and added to a 96-well black-wall plate at 200 μL per well; hIL2Rβ (Acro) was diluted to 5 μg/mL in 1×PBS and also added to the 96-well black-wall plate at 200 μL per well. […] The 96-well black-wall plate containing the testing samples and a SA sensor was uploaded onto the analyzer, and a program was inputted. The SA sensor was firstly immersed into the well with biotin-CD25 (Acro) and then with hIL2Rβ (Acro) till saturation. After that, the sensor was immersed in the testing sample well and the binding signal was recorded in real-time. At the end of each association-dissociation cycle, the sensor was regenerated by immersing in 500 mM phosphate buffer and then started with the next cycle of detection.
Description for hIL2Rα/β/γ complex: as §3

B1: hIL2-DM (Δ3, C125L) (ligand)
chain: SSSTKKTQLQLEHLLLDLQMILNGINNYKNPKLTRMLTFKFYMPKKATELKHLQCLEEELGPLEEVLNLAQSKNFHLRPRDLISNIRVIVLELKGSETTFMCEYADETATIVEFLNRWITFLQSIISTLT
notes: first three N-terminal residues (APT) deleted; also called hIL2-DM (Δ3, 125L); hIL2-DM (Δ3, C125L) mutein
On to B1, for which the “Activity in Promoting CTLL-2 Cell Proliferation (EC50, nM)” value (shortened to “Activity”) in assay [1] turned out to be 0.156 nM. Also, the binding result with hIL2Rα/β/γ complex, in the assay with hIL2Rα (hCD25) [2] and with hIL2Rα/β complex was “binds” throughout.

B2: S4B6 chimeric antibody (antibody, human IgG1, V domains shown)
VH: EVQLQESGAELVRPGTSVKLSCKVSGDTITAYYLHFVRQRPGQGLEWIGRIDPEDDSTKYAENFKNKATFTADASSNTAYLRLSSLTSEDTATYFCTTVTFYYSRELRWFAYWGQGTLVTVSS
VL: DIQVTQSPASLSASLEEIVTITCQASQDIGNYLSWYQQKLGKSPQLLIHSATSLADGVPSRFSGSRSGTQYSLKINRLQVEDTGIYYCLQHYSTPYTFGAGTKLELK
notes: also called chS4B6
For the molecule B2, the Kd with mIL2-his [3] was 0.996 nM; with hIL2-TM-his [4] it was 22.6 nM; with hIL2-DM-his, 39.4 nM; with mIL2-his [5], 0.996 nM. Also, the koff with mIL2-his [3] turned out to be 0.000182 s⁻¹; with hIL2-TM-his [4] it was 0.00476 s⁻¹; in the assay with hIL2-DM-his, 0.0106 s⁻¹; with mIL2-his [5], 0.000182 s⁻¹. Moreover, the kon is 183000 M⁻¹ s⁻¹ in the assay with mIL2-his [3], 210000 M⁻¹ s⁻¹ in the assay with hIL2-TM-his [4], 269000 M⁻¹ s⁻¹ in the assay with hIL2-DM-his and 183000 M⁻¹ s⁻¹ with mIL2-his [5]. Further, in the assay with mIL2-his [6], the EC50 amounted to 0.0139 µg/mL.

B3: IC-Cy08 (other)
heavy: APTSSSTKKTQLQLEHLLLDLQMILNGINNYKNPKLTRMLTFKFYMPKKATELKHLQCLEEELGCLEEVLNLAQSKNFHLRPRDLISNIRVIVLELKGSETTFMCEYADETATIVEFLNRWITFCQSIISTLTGGGGSGGGGSGGGGSGGGGSQVQLVQSGAEVKKPGATVKISCKVSGDTITAYYMHWVRQAPGQGLEWIGRIDPEDDSTKYAENFKGRVTITADTSTDTAYMELSSLRSEDTAVYYCTTVTCYYSRELRWFAYWGQGTLVTVSS
VL: DIVLTQSPATLSLSPGERATLSCQASQDIGNYLSWYQQKPGQAPRLLIYSATSLASGIPARFSGSRSGTDFTLTISSLEPEDFAVYYCLQHYSTPYTFGQGTKLEIK
notes: hIL-2/anti-IL-2 antibody fusion protein, disulfide IL:65-H:97; also called H6K3(H)-Cy08; H6K3(H)-Cy-08
Turning to B3, the “STAT5 phosphorylation in CTLL-2 cells by flow cytometry, EC50” value in assay [7] was 0.234 nM. Further, the “Activity” value in [1] was 0.425 nM. Further, in the assay with hIL2Rβ (hCD122) [8], the binding result is on record as “binds”.

B4: hS4B6-H6K3(H) (antibody, V domains shown)
VH: QVQLVQSGAEVKKPGATVKISCKVSGDTITAYYMHWVRQAPGQGLEWIGRIDPEDDSTKYAENFKGRVTITADTSTDTAYMELSSLRSEDTAVYYCTTVTFYYSRELRWFAYWGQGTLVTVSS
VL: B3 VL
notes: H6K3 with L34M, N65G, N76D (heavy) and D56S, Y71F (light)
B4: in the assay with hIL2-TM-his [9], the Kd is 9.88 nM, the koff amounted to 0.0027 s⁻¹ and the kon is 274000 M⁻¹ s⁻¹. In the assay with mIL2-his [10], this molecule showed a Kd of 0.254 nM, a koff of 0.000236 s⁻¹ and a kon of 928000 M⁻¹ s⁻¹.

B5: K2G11-Cy06 (other)
heavy: SSSTKKTQLQLEHLLLDLQMILNGINNYKNPKLTRMLTFKFYMPKKATELKHLQCLEEELGPLEEVLNLAQSKNFHLRPRDLISNIRVIVLELKGSETCFMCEYADETATIVEFLNRWITFLQSIISTLTGGGGSGGGGSGGGGSGGGGSQVQLVQSGAEVKKPGATVKISCKVSGDTITAYYMHWVRQAPGQGLEWIGRIDPDDDSTKYAENFKGRVTITADTSTDTAYMELSSLRSEDTAVYYCTTITFLYSRELRWFAYWGQGTLVTVSS
VL: B3 VL with D28Y, G30S, G68C
notes: hIL2-DM (Δ3, C125L) fused to the heavy chain of K2G11, disulfide IL:102-L:68
On to B5, for which the “Activity” value in assay [1] is 5.77 nM. The binding result was “binds” with hIL2Rβ (hCD122) [11] and “no binding (tested: 10 µg/mL)” with hIL2Rα (hCD25) [12].

B6: H6K3(H)-Cy10 (other)
heavy: B5 heavy with F39C, C99T, D204E, I249V, F251C, L252Y
VL: B3 VL
notes: fusion with the parental antibody hS4B6-H6K3(H), disulfide IL:42-H:97; also called H6K3-Cy10
On to B6, for which, in the assay with hIL2Rα (hCD25) [12], the binding result is “no binding (tested: 10 µg/mL)”.
